B1: Azoarcus group I ribozyme (parent)
chain: GUGCCUUGCGCCGGGAAACCACGCAAGGGAUGGUGUCAAAUUCGGCGAAACCUAAGCGCCCGCCCGGGCGUAUGGCAACGCCGAGCCAAGCUUCGGCGCCUGCGCCGAUGAAGGUGUAGAGACUAGACGGCACCCACCUAAGGCAAACGCUAUGGUGAAGGCAUAGUCCAGGGAGUGGCGAAAGUCACACAAACCGG

Variants of: B1
Experiment: reverse-splicing fitness (ratio to wild type); higher = more active; in vitro selection; Mg2+ level not given
In short: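 An in vitro group I ribozyme library with randomized positions was T7-transcribed and gel-purified. In triplicate, 10 pmol RNA in EPPS pH 7.5 was reacted with 50 pmoles of a 30-nt RNA substrate for 1 h at 37 °C across several added MgCl2 levels (1–48 mM), then stopped with EDTA. Products were reverse transcribed from a substrate-complementary primer, PCR-amplified and sequenced (HiSeq 4000). Fitness is a variant's read proportion after selection over that before, normalised to wild type.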

Row | Variant | reverse-splicing fitness
1 | A111C A120C C150A C169G | 0.00716
2 | A111C A120C A145U C150G C169G U176C | 0.00645
3 | A111C A120C A145U C150G C169G U176G | 0.00591
4 | A111C A120C A145U C150G C169G U176A | 0.00752
5 | A111C A120C A145U | 0.589
6 | A111C A120G A145G C169A U176G | 0.00458
7 | A111C A120G A145G C169A U176C | 0.0401
8 | A111C A120G A145G C169A U176A | 0.0264
9 | A111C A120G A145G C169U U176G | 0.00448
10 | A111C A120G A145G C169U U176C | 0.045
11 | A111C A120G A145G C169U U176A | 0.0413
12 | A111C A120C C150G C169A U176C | 0.00966
13 | A111C A120C C150G C169A U176G | 0.00561
14 | A111C A120C C150G C169A U176A | 0.00884
15 | A111C A120G A145U C150A C169G U176A | 0.0123
16 | A111C A120G A145U C150A C169G U176G | 0.00467
17 | A111C A120G A145U C150A C169G U176C | 0.0176
18 | A111C A120G A145C C150G C169A U176G | 0.0045
19 | A111C A120G A145C C150G C169A U176A | 0.00964
20 | A111C A120G A145C C150G C169A U176C | 0.00838
21 | A111C A120G A145G C150G C169G U176C | 0.0114

Row | Variant | reverse-splicing fitness
22 | A111C A120G A145G C150G C169G U176G | 0.00543
23 | A111C A120G A145G C150G C169G U176A | 0.0101
24 | A111C A120G A145U C150U C169U U176G | 0.00595
25 | A111C A120G A145U C150U C169U U176C | 0.0353
26 | A111C A120G A145U C150U C169U U176A | 0.034
27 | A111C A120C C150A C169U U176G | 0.00635
28 | A111C A120C C150A C169U U176C | 0.0224
29 | A111C A120C C150A C169U U176A | 0.0208
30 | A111C A120C A145U C150A C169G U176A | 0.0127
31 | A111C A120C A145U C150A C169G U176C | 0.0146
32 | A111C A120C A145U C150A C169G U176G | 0.00651
33 | A111C A120G A145C C150U C169G U176C | 0.0221
34 | A111C A120G A145C C150U C169G U176A | 0.0253
35 | A111C A120G A145C C150U C169G U176G | 0.00474
36 | A111C A120C C150G U176G | 0.00388
37 | A111C A120C C150G U176A | 0.0144
38 | A111C A120C C150G U176C | 0.0288
39 | A111C A120C A145U C150G C169A U176A | 0.0107
40 | A111C A120C A145U C150G C169A U176C | 0.00906
41 | A111C A120C A145U C150G C169A U176G | 0.00619
42 | A111C A120G A145C C150U C169G | 0.0492

Row | Variant | reverse-splicing fitness
43 | A111C A120G A145C C150U C169U | 0.0398
44 | A111C A120G A145C C150U C169A | 0.0284
45 | A111C A120G A145U C150U U176A | 0.0265
46 | A111C A120G A145U C150U U176C | 0.0338
47 | A111C A120G A145U C150U U176G | 0.00526
48 | A111C A120G A145U C150A U176C | 0.0176
49 | A111C A120G A145U C150A U176A | 0.0126
50 | A111C A120G A145U C150A U176G | 0.0043
51 | A111C A120G A145U C150U C169G | 0.133
52 | A111C A120G A145U C150U C169U | 0.106
53 | A111C A120G A145U C150U C169A | 0.0731
54 | A111C A120G A145U C150G C169G | 0.0203
55 | A111C A120G A145U C150G C169U | 0.0209
56 | A111C A120G A145U C150G C169A | 0.0153
57 | A111C A120C C169G U176C | 0.021
58 | A111C A120C C169G U176A | 0.0157
59 | A111C A120C C169G U176G | 0.00524
60 | A111C A120C C150G C169U | 0.02
61 | A111C A120C C150G C169A | 0.00914
62 | A111C A120C C150G C169G | 0.00757
63 | A111C A120G A145G C150U C169G U176A | 0.0243

Row | Variant | reverse-splicing fitness
64 | A111C A120G A145G C150U C169G U176C | 0.035
65 | A111C A120G A145G C150U C169G U176G | 0.00471
66 | A111C A120C C169U | 0.183
67 | A111C A120C C169G | 0.00921
68 | A111C A120C C169A | 0.0116
69 | A111C A120C A145U C150U C169G U176A | 0.0128
70 | A111C A120C A145U C150U C169G U176C | 0.0132
71 | A111C A120C A145U C150U C169G U176G | 0.00667
72 | A111C A120C C169A U176A | 0.0152
73 | A111C A120C C169A U176C | 0.0161
74 | A111C A120C C169A U176G | 0.00631
75 | A111C A120C C150U U176G | 0.0275
76 | A111C A120C C150U U176A | 0.128
77 | A111C A120C C150U U176C | 0.153
78 | A111C A120G A145C C169A U176A | 0.0154
79 | A111C A120G A145C C169A U176C | 0.0169
80 | A111C A120G A145C C169A U176G | 0.00362
81 | A111C A120C A145U C169U U176G | 0.00761
82 | A111C A120C A145U C169U U176C | 0.0445
83 | A111C A120C A145U C169U U176A | 0.035
84 | A111C A120C A145G C150U U176G | 0.0297

From the RNAGym collection of RNA variant scans (doi:10.1093/molbev/msab373)
